Experiment [1] addresses cynomolgus c-Met (cynomolgus monkey). The experiment in a line: competition FACS: 0.5 nM biotinylated HGF on BAF3 cells with cynomolgus c-Met.
The target of experiment [2] is Human c-Met (human) (UniProt P08581). Put plainly: competition flow cytometry: 1 nM biotinylated hHGF on A549 cells. A general note: Flow cytometry measures light scatter and fluorescence of single cells or particles in a stream.
Experiment [3] has the same target. Put plainly: cell-based or functional assay.
Experiment [4] addresses recombinant human c-Met/Fc chimera (R&D systems) (human). The experiment in a line: HGF/c-Met competition Alphascreen, in absence of HSA. In general terms: Bead proximity is the source of the signal in Alpha formats.
Experiment [5] shares this target. Put plainly: HGF/c-Met competition Alphascreen, in presence of 5 uM HSA.
The target is the same in experiment [6]. Put plainly: HGF/c-Met competition Alphascreen: biotinylated hHGF, human c-Met/Fc.

Chain of Human c-Met (human) (P08581 25-1390 limits assumed): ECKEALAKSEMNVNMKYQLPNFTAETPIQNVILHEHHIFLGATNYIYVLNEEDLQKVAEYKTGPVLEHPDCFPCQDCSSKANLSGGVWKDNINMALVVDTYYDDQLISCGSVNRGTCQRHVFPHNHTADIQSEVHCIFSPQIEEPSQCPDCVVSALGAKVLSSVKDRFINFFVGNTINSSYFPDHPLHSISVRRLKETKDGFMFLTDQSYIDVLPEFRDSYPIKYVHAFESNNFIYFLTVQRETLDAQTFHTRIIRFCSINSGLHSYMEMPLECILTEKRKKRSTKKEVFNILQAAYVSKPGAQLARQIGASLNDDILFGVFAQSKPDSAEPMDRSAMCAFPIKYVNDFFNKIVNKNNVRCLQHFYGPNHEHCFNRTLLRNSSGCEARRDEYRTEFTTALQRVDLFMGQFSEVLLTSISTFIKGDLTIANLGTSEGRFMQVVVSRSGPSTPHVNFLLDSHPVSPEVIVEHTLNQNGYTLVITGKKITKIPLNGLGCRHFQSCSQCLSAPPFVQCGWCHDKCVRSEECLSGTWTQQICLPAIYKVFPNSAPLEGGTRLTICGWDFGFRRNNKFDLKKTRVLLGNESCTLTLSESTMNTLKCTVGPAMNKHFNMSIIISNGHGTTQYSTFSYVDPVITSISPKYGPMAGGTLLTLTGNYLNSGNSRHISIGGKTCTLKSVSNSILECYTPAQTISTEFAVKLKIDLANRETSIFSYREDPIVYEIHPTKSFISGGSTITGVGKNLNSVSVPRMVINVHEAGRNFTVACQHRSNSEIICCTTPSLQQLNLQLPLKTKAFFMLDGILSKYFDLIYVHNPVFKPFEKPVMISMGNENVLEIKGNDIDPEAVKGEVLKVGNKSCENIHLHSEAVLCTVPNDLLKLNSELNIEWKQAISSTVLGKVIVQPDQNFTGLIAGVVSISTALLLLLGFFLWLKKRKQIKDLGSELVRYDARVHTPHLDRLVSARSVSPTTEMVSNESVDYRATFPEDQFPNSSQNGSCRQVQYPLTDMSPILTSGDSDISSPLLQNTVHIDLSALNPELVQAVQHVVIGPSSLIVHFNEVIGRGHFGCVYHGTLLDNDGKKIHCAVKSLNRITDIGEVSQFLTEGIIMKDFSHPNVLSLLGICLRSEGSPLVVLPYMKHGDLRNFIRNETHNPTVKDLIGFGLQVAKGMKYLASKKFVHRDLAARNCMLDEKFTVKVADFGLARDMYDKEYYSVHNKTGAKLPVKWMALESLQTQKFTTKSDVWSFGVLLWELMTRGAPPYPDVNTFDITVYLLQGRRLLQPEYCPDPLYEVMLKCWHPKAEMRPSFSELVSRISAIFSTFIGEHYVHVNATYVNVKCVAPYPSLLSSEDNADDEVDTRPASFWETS
Chain of recombinant human c-Met/Fc chimera (R&D systems) (human) (chain, as listed by the source mutant limits assumed): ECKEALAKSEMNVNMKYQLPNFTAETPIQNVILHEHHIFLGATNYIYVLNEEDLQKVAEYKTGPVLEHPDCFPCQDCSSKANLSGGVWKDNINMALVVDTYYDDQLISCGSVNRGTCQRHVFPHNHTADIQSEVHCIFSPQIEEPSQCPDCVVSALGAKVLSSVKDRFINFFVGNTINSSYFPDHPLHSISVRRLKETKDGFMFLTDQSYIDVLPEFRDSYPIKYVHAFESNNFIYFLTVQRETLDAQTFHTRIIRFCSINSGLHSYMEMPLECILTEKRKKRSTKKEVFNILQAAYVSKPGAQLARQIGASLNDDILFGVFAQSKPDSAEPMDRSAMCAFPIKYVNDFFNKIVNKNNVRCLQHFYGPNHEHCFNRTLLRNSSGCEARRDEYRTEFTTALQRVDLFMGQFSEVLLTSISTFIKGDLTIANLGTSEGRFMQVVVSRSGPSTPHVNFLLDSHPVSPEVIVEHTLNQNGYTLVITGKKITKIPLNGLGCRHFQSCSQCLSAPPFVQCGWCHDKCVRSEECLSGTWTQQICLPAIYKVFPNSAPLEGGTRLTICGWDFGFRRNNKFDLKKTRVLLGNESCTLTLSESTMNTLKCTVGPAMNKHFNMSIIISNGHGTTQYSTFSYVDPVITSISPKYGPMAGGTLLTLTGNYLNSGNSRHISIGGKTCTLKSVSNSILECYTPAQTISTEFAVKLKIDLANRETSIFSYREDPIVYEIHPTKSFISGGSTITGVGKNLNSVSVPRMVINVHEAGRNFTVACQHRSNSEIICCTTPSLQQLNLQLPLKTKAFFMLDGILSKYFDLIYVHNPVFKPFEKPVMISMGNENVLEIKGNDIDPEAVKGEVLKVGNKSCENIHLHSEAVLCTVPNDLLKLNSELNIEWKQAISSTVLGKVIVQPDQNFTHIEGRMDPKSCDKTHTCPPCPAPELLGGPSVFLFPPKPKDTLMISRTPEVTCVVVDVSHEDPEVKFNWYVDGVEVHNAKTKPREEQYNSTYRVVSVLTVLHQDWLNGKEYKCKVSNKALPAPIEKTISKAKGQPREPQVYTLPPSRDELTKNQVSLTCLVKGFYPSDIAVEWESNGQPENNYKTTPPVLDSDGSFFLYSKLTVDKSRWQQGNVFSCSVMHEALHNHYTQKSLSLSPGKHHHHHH
Chain of cynomolgus c-Met (cynomolgus monkey) (A0M8R7 25-1381 S170N/I621T limits assumed): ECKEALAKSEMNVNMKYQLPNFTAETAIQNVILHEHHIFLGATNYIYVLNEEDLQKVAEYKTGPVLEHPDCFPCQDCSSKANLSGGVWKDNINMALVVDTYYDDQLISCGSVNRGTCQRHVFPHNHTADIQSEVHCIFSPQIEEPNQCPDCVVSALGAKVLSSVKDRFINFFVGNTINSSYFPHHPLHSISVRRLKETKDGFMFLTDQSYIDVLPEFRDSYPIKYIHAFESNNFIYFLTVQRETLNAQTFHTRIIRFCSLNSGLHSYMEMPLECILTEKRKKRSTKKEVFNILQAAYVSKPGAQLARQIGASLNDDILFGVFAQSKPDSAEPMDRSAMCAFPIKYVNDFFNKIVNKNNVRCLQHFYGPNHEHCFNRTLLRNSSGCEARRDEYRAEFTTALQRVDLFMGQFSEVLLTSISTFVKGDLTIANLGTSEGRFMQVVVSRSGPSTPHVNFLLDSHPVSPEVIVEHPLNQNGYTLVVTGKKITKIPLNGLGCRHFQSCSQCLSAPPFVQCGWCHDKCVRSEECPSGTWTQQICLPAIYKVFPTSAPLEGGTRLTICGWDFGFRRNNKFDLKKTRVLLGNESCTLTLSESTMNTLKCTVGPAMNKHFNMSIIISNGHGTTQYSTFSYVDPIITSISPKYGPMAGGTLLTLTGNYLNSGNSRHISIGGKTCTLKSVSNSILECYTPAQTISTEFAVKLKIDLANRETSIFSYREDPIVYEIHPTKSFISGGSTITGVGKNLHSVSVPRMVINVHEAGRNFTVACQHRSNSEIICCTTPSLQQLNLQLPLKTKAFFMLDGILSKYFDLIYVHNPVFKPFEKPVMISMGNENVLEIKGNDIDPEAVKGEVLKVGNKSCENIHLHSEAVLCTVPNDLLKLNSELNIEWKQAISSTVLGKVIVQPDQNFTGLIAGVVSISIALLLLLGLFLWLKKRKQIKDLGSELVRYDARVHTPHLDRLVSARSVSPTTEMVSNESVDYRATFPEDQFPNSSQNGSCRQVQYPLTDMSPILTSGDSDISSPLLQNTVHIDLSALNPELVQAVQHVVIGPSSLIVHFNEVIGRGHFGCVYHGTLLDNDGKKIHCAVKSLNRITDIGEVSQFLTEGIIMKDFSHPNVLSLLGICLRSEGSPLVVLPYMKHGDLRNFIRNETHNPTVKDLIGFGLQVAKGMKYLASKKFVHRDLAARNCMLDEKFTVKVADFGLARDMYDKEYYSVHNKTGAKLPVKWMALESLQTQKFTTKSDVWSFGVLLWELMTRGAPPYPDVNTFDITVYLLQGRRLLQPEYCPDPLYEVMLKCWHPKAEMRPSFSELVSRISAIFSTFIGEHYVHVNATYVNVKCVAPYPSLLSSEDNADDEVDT

anti-c-Met antibody 5D5: the results for the IC50 (in experiment [1]; with Human c-Met (human) [2]) were 6.7 nM and 2.72 nM, respectively. The same substance had a concentration of maximal c-Met phosphorylation in A549 cells in the experiment with Human c-Met (human) [3] of 37 nM.
Turning to “anti-c-Met antibody fragment 5D5 Fab from mAb”, the IC50 (usually the concentration that gives 50% inhibition) in experiment [4] is 3.2 nM. The IC50 in experiment [5] was 3.1 nM. The same substance returned an IC50 with Human c-Met (human) [2] of 11.3 nM. Also, in the experiment with Human c-Met (human) [3], the % inhibition of HGF-dependent A549 cell migration is 112%; the % inhibition of HGF-dependent c-Met phosphorylation, A549 cells, experiment 1 was 96.4%; the % inhibition of HGF-dependent c-Met phosphorylation, A549 cells, experiment 2 came out at 95.9%; the % inhibition of HGF-dependent proliferation of BxPC3 cells worked out at 94.8%. In the experiment with Human c-Met (human) [3], the IC50, HGF-dependent A549 cell migration was determined as 5.48 nM; the IC50, HGF-dependent c-Met phosphorylation, A549 cells, experiment 1 worked out at 10.4 nM; the IC50, HGF-dependent c-Met phosphorylation, A549 cells, experiment 2 came to 9.09 nM; the IC50, HGF-dependent proliferation of BxPC3 cells stood at 34.3 nM. Also, in experiment [6], the % inhibition (in general, the change of the read-out against control, counted positive when it falls) amounted to 101% and the 50% inhibitory concentration (IC50) was 1.3 nM.

The values are drawn from US20120244164A1.
